Test results as given in patent US20150344570A1 (published 2015).

B1: GpH7-B3 variant T335_07I/GpL16-k0 (antibody, human IgG1, kappa)
heavy: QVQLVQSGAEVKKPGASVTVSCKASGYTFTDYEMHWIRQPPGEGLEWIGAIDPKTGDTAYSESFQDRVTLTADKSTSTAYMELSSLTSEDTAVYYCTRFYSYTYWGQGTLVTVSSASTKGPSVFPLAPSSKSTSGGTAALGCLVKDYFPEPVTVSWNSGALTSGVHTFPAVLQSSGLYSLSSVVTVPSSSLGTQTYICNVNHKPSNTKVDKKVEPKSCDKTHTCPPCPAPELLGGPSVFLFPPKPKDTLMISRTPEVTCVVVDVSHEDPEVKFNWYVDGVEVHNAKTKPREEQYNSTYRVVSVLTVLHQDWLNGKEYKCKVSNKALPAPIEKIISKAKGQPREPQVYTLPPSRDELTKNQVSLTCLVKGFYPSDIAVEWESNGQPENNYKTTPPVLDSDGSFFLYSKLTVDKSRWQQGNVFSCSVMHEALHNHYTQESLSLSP
light: DIVMTQSPLSLPVTPGEPASISCQASESLVHSNRNTYLHWYLQKPGQSPQLLIYKVSNRFSGVPDRFSGSGSGTDFTLKISRVEAEDVGVYYCSQNTHVPPTFGQGTKVEIERTVAAPSVFIFPPSDEQLKSGTASVVCLLNNFYPREAKVQWKVDNALQSGNSQESVTEQDSKDSTYSLSSTLTLSKADYEKHKVYACEVTHQGLSSPVTKSFNRGEC
notes: both H chains altered; also called Ho Ab T335_07I
B2: GpH7-B3 variant S298_14T/GpL16-k0 (antibody, human IgG1, kappa)
heavy: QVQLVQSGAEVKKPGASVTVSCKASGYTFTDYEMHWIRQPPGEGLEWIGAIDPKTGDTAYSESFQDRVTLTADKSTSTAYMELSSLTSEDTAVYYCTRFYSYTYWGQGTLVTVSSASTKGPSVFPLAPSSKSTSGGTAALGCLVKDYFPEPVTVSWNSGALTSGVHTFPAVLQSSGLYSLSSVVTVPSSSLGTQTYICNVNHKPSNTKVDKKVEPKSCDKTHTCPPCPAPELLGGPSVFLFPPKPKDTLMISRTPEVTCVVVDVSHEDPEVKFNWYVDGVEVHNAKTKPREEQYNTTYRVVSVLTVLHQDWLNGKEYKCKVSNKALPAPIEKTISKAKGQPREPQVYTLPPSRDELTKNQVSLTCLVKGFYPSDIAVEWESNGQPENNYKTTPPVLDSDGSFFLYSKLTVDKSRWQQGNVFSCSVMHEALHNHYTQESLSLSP
light: B1 light
notes: both H chains altered; also called Ho Ab S298_14T
B3: GpH7-B3 variant S337_09D/GpL16-k0 (antibody, human IgG1, kappa)
heavy: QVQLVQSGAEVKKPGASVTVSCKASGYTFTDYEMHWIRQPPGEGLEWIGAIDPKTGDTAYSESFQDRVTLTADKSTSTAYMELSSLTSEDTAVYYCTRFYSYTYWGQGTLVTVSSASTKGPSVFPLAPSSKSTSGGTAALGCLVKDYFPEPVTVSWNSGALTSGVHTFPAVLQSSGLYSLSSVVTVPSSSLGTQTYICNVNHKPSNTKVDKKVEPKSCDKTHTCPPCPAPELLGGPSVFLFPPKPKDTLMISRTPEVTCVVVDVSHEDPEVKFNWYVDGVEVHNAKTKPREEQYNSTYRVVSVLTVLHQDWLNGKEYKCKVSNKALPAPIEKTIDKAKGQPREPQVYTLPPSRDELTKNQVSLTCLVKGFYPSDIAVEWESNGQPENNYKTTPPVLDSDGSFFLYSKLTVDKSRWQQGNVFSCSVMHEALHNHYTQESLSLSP
light: B1 light
notes: both H chains altered; also called Ho Ab S337_09D
B4: GpH7-B3 variant T335_10E/GpL16-k0 (antibody, human IgG1, kappa)
heavy: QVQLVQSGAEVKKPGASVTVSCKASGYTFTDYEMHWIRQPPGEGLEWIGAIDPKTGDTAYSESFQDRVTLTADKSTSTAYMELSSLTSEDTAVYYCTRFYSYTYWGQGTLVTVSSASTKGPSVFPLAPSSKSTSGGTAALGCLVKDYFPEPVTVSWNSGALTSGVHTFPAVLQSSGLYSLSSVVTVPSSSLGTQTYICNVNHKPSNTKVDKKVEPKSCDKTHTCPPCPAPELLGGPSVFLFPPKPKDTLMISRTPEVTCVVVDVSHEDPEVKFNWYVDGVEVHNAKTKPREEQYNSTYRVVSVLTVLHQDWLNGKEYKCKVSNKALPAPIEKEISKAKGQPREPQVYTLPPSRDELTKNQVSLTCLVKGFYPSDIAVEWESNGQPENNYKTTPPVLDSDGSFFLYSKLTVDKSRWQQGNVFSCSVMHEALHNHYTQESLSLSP
light: B1 light
notes: both H chains altered; also called Ho Ab T335_10E
B5: GpH7-B3 variant S337_18N/GpL16-k0 (antibody, human IgG1, kappa)
heavy: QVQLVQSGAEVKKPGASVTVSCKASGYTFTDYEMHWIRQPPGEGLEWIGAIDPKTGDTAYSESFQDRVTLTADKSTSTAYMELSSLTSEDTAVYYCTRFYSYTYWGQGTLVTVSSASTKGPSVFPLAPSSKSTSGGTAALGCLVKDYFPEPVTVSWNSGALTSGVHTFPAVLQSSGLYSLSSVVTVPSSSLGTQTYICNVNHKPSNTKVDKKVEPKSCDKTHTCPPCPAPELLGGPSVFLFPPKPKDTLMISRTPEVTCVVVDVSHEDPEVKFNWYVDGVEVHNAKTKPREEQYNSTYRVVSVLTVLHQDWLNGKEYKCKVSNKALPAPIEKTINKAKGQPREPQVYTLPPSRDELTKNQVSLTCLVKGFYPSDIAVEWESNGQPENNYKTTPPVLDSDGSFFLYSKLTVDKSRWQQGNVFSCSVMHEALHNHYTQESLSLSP
light: B1 light
notes: both H chains altered; also called Ho Ab S337_18N
B6: GpH7-B3 variant S324_16H/GpL16-k0 (antibody, human IgG1, kappa)
heavy: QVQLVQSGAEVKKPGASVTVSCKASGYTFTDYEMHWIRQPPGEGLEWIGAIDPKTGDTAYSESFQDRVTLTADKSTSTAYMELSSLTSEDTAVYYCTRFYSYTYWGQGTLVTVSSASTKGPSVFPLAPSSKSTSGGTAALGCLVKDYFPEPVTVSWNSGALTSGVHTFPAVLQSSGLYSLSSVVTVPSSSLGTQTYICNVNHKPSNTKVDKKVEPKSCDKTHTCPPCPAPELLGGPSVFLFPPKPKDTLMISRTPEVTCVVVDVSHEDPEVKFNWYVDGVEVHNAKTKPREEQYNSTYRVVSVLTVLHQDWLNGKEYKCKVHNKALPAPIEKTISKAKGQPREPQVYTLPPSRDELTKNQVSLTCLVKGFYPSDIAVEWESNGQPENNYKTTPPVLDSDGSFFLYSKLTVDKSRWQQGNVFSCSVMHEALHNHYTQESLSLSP
light: B1 light
notes: both H chains altered; also called Ho Ab S324_16H
B7: GpH7-B3 variant S337_10E/GpL16-k0 (antibody, human IgG1, kappa)
heavy: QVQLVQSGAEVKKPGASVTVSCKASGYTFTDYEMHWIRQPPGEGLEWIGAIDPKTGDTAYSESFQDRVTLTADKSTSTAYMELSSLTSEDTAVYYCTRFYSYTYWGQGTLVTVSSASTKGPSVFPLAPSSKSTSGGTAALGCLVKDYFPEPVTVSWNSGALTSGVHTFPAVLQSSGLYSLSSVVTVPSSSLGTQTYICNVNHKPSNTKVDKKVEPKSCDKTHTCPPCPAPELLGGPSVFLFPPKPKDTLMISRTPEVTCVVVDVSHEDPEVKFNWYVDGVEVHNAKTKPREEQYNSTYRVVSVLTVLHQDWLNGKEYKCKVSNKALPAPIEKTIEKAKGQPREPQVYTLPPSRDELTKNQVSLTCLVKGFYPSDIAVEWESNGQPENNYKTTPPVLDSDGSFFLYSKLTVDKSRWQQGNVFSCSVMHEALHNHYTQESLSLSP
light: B1 light
notes: both H chains altered; also called Ho Ab S337_10E
B8: GpH7-B3 variant S324_15Y/GpL16-k0 (antibody, human IgG1, kappa)
heavy: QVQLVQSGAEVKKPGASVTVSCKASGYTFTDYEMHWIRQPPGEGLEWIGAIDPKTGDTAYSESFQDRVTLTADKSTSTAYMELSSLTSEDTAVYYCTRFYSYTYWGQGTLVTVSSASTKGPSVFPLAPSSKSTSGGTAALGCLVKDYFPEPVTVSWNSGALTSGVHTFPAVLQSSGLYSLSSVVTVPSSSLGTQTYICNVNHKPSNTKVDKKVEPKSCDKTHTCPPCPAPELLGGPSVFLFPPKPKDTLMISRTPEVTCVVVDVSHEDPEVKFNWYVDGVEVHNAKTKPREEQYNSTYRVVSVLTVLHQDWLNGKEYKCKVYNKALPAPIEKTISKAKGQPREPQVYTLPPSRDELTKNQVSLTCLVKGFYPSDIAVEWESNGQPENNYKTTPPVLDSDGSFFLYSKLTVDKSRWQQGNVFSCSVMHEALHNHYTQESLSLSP
light: B1 light
notes: both H chains altered; also called Ho Ab S324_15Y
B9: GpH7-A5/GpH7-B3 variant A330_05P/GpL16-k0 (antibody, human IgG1, kappa)
heavy 1: not shown
heavy 2: not shown
light: B1 light
notes: one H chain altered; also called He Ab A330_05P
B10: GpH7-A5/GpH7-B3 variant E333_02A/GpL16-k0 (antibody, human IgG1, kappa)
heavy 1: not shown
heavy 2: not shown
light: B1 light
notes: one H chain altered; also called He Ab E333_02A
B11: GpH7-A5/GpH7-B3 variant I336_06M/GpL16-k0 (antibody, human IgG1, kappa)
heavy 1: not shown
heavy 2: not shown
light: B1 light
notes: one H chain altered; also called He Ab I336_06M
B12: GpH7-A5/GpH7-B3 variant A330_07I/GpL16-k0 (antibody, human IgG1, kappa)
heavy 1: not shown
heavy 2: not shown
light: B1 light
notes: one H chain altered; also called He Ab A330_07I
B13: GpH7-A5/GpH7-B3 variant T335_15Y/GpL16-k0 (antibody, human IgG1, kappa)
heavy 1: not shown
heavy 2: not shown
light: B1 light
notes: one H chain altered; also called He Ab T335_15Y
B14: GpH7-A5/GpH7-B3 variant E333_04F/GpL16-k0 (antibody, human IgG1, kappa)
heavy 1: not shown
heavy 2: not shown
light: B1 light
notes: one H chain altered; also called He Ab E333_04F
B15: GpH7-A5/GpH7-B3 variant S337_10E/GpL16-k0 (antibody, human IgG1, kappa)
heavy 1: not shown
heavy 2: not shown
light: B1 light
notes: one H chain altered; also called He Ab S337_10E
B16: GpH7-A5/GpH7-B3 variant P238_10E/GpL16-k0 (antibody, human IgG1, kappa)
heavy 1: not shown
heavy 2: not shown
light: B1 light
notes: one H chain altered; also called He Ab P238_10E
B17: GpH7-A5/GpH7-B3 variant S267_09D/GpL16-k0 (antibody, human IgG1, kappa)
heavy 1: not shown
heavy 2: not shown
light: B1 light
notes: one H chain altered; also called He Ab S267_09D
B18: GpH7-A5/GpH7-B3 variant T335_10E/GpL16-k0 (antibody, human IgG1, kappa)
heavy 1: not shown
heavy 2: not shown
light: B1 light
notes: one H chain altered; also called He Ab T335_10E
B19: GpH7-A5/GpH7-B3 variant L234_07I/GpL16-k0 (antibody, human IgG1, kappa)
heavy 1: not shown
heavy 2: not shown
light: B1 light
notes: one H chain altered; also called He Ab L234_07I
B20: GpH7-A5/GpH7-B3 variant S298_14T/GpL16-k0 (antibody, human IgG1, kappa)
heavy 1: not shown
heavy 2: not shown
light: B1 light
notes: one H chain altered; also called He Ab S298_14T
B21: GpH7-A5/GpH7-B3 variant K334_09D/GpL16-k0 (antibody, human IgG1, kappa)
heavy 1: not shown
heavy 2: not shown
light: B1 light
notes: one H chain altered; also called He Ab K334_09D
B22: GpH7-A5/GpH7-B3 variant I332_01G/GpL16-k0 (antibody, human IgG1, kappa)
heavy 1: not shown
heavy 2: not shown
light: B1 light
notes: one H chain altered; also called He Ab I332_01G
B23: GpH7-A5/GpH7-B3 variant S324_15Y/GpL16-k0 (antibody, human IgG1, kappa)
heavy 1: not shown
heavy 2: not shown
light: B1 light
notes: one H chain altered; also called He Ab S324_15Y
B24: GpH7-A5/GpH7-B3 variant I336_18N/GpL16-k0 (antibody, human IgG1, kappa)
heavy 1: not shown
heavy 2: not shown
light: B1 light
notes: one H chain altered; also called He Ab I336_18N
B25: GpH7-A5/GpH7-B3 variant I336_02A/GpL16-k0 (antibody, human IgG1, kappa)
heavy 1: not shown
heavy 2: not shown
light: B1 light
notes: one H chain altered; also called He Ab I336_02A
B26: GpH7-A5/GpH7-B3 variant L234_09D/GpL16-k0 (antibody, human IgG1, kappa)
heavy 1: not shown
heavy 2: not shown
light: B1 light
notes: one H chain altered; also called He Ab L234_09D
B27: GpH7-A5/GpH7-B3 variant E333_09D/GpL16-k0 (antibody, human IgG1, kappa)
heavy 1: not shown
heavy 2: not shown
light: B1 light
notes: one H chain altered; also called He Ab E333_09D
B28: GpH7-A5/GpH7-B3 variant I332_06M/GpL16-k0 (antibody, human IgG1, kappa)
heavy 1: not shown
heavy 2: not shown
light: B1 light
notes: one H chain altered; also called He Ab I332_06M
B29: GpH7-A5/GpH7-B3 variant S337_14T/GpL16-k0 (antibody, human IgG1, kappa)
heavy 1: not shown
heavy 2: not shown
light: B1 light
notes: one H chain altered; also called He Ab S337_14T
B30: GpH7-A5/GpH7-B3 variant Q295_14T/GpL16-k0 (antibody, human IgG1, kappa)
heavy 1: not shown
heavy 2: not shown
light: B1 light
notes: one H chain altered; also called He Ab Q295_14T
B31: GpH7-A5/GpH7-B3 variant T335_19Q/GpL16-k0 (antibody, human IgG1, kappa)
heavy 1: not shown
heavy 2: not shown
light: B1 light
notes: one H chain altered; also called He Ab T335_19Q
B32: GpH7-A5/GpH7-B3 variant K334_01G/GpL16-k0 (antibody, human IgG1, kappa)
heavy 1: not shown
heavy 2: not shown
light: B1 light
notes: one H chain altered; also called He Ab K334_01G
B33: GpH7-A5/GpH7-B3 variant K326_07I/GpL16-k0 (antibody, human IgG1, kappa)
heavy 1: not shown
heavy 2: not shown
light: B1 light
notes: one H chain altered; also called He Ab K326_07I
B34: GpH7-A5/GpH7-B3 variant L234_04F/GpL16-k0 (antibody, human IgG1, kappa)
heavy 1: not shown
heavy 2: not shown
light: B1 light
notes: one H chain altered; also called He Ab L234_04F
B35: GpH7-A5/GpH7-B3 variant E333_13S/GpL16-k0 (antibody, human IgG1, kappa)
heavy 1: not shown
heavy 2: not shown
light: B1 light
notes: one H chain altered; also called He Ab E333_13S
B36: GpH7-A5/GpH7-B3 variant T335_20W/GpL16-k0 (antibody, human IgG1, kappa)
heavy 1: not shown
heavy 2: not shown
light: B1 light
notes: one H chain altered; also called He Ab T335_20W
B37: GpH7-A5/GpH7-B3 variant P238_09D/GpL16-k0 (antibody, human IgG1, kappa)
heavy 1: not shown
heavy 2: not shown
light: B1 light
notes: one H chain altered; also called He Ab P238_09D
B38: GpH7-A5/GpH7-B3 variant T335_16H/GpL16-k0 (antibody, human IgG1, kappa)
heavy 1: not shown
heavy 2: not shown
light: B1 light
notes: one H chain altered; also called He Ab T335_16H
B39: GpH7-A5/GpH7-B3 variant G236_15Y/GpL16-k0 (antibody, human IgG1, kappa)
heavy 1: not shown
heavy 2: not shown
light: B1 light
notes: one H chain altered; also called He Ab G236_15Y
B40: GpH7-A5/GpH7-B3 variant S337_04F/GpL16-k0 (antibody, human IgG1, kappa)
heavy 1: not shown
heavy 2: not shown
light: B1 light
notes: one H chain altered; also called He Ab S337_04F
B41: GpH7-A5/GpH7-B3 variant E333_03V/GpL16-k0 (antibody, human IgG1, kappa)
heavy 1: not shown
heavy 2: not shown
light: B1 light
notes: one H chain altered; also called He Ab E333_03V
B42: GpH7-A5/GpH7-B3 variant S337_15Y/GpL16-k0 (antibody, human IgG1, kappa)
heavy 1: not shown
heavy 2: not shown
light: B1 light
notes: one H chain altered; also called He Ab S337_15Y
B43: GpH7-A5/GpH7-B3 variant K326_08L/GpL16-k0 (antibody, human IgG1, kappa)
heavy 1: not shown
heavy 2: not shown
light: B1 light
notes: one H chain altered; also called He Ab K326_08L
B44: GpH7-A5/GpH7-B3 variant T335_07I/GpL16-k0 (antibody, human IgG1, kappa)
heavy 1: not shown
heavy 2: not shown
light: B1 light
notes: one H chain altered; also called He Ab T335_07I
B45: GpH7-A5/GpH7-B3 variant I336_08L/GpL16-k0 (antibody, human IgG1, kappa)
heavy 1: not shown
heavy 2: not shown
light: B1 light
notes: one H chain altered; also called He Ab I336_08L
B46: GpH7-A5/GpH7-B3 variant S267_02A/GpL16-k0 (antibody, human IgG1, kappa)
heavy 1: not shown
heavy 2: not shown
light: B1 light
notes: one H chain altered; also called He Ab S267_02A
B47: GpH7-A5/GpH7-B3 variant S337_18N/GpL16-k0 (antibody, human IgG1, kappa)
heavy 1: not shown
heavy 2: not shown
light: B1 light
notes: one H chain altered; also called He Ab S337_18N
B48: GpH7-A5/GpH7-B3 variant V266_08L/GpL16-k0 (antibody, human IgG1, kappa)
heavy 1: not shown
heavy 2: not shown
light: B1 light
notes: one H chain altered; also called He Ab V266_08L
B49: GpH7-A5/GpH7-B3 variant E333_20W/GpL16-k0 (antibody, human IgG1, kappa)
heavy 1: not shown
heavy 2: not shown
light: B1 light
notes: one H chain altered; also called He Ab E333_20W
B50: GpH7-A5/GpH7-B3 variant S324_16H/GpL16-k0 (antibody, human IgG1, kappa)
heavy 1: not shown
heavy 2: not shown
light: B1 light
notes: one H chain altered; also called He Ab S324_16H
B51: GpH7-A5/GpH7-B3 variant S324_02A/GpL16-k0 (antibody, human IgG1, kappa)
heavy 1: not shown
heavy 2: not shown
light: B1 light
notes: one H chain altered; also called He Ab S324_02A
B52: GpH7-A5/GpH7-B3 variant I336_03V/GpL16-k0 (antibody, human IgG1, kappa)
heavy 1: not shown
heavy 2: not shown
light: B1 light
notes: one H chain altered; also called He Ab I336_03V
B53: GpH7-A5/GpH7-B3 variant P271_01G/GpL16-k0 (antibody, human IgG1, kappa)
heavy 1: not shown
heavy 2: not shown
light: B1 light
notes: one H chain altered; also called He Ab P271_01G
B54: GpH7-A5/GpH7-B3 variant H268_02A/GpL16-k0 (antibody, human IgG1, kappa)
heavy 1: not shown
heavy 2: not shown
light: B1 light
notes: one H chain altered; also called He Ab H268_02A
B55: GpH7-A5/GpH7-B3 variant L234_20W/GpL16-k0 (antibody, human IgG1, kappa)
heavy 1: not shown
heavy 2: not shown
light: B1 light
notes: one H chain altered; also called He Ab L234_20W
B56: GpH7-A5/GpH7-B3 variant H268_18N/GpL16-k0 (antibody, human IgG1, kappa)
heavy 1: not shown
heavy 2: not shown
light: B1 light
notes: one H chain altered; also called He Ab H268_18N
B57: GpH7-A5/GpH7-B3 variant S337_20W/GpL16-k0 (antibody, human IgG1, kappa)
heavy 1: not shown
heavy 2: not shown
light: B1 light
notes: one H chain altered; also called He Ab S337_20W
B58: GpH7-A5/GpH7-B3 variant T335_13S/GpL16-k0 (antibody, human IgG1, kappa)
heavy 1: not shown
heavy 2: not shown
light: B1 light
notes: one H chain altered; also called He Ab T335_13S
B59: GpH7-A5/GpH7-B3 variant S337_09D/GpL16-k0 (antibody, human IgG1, kappa)
heavy 1: not shown
heavy 2: not shown
light: B1 light
notes: one H chain altered; also called He Ab S337_09D

molecular target: T1, FcγRIIIa extracellular domain with C-terminal His tag (human, UniProt P08637 17-208); assay: SPR (Biacore), both H chains altered; HoCon Ab GpH7-B3/GpL16-k0 = 100
T1 sequence (P08637 17-208): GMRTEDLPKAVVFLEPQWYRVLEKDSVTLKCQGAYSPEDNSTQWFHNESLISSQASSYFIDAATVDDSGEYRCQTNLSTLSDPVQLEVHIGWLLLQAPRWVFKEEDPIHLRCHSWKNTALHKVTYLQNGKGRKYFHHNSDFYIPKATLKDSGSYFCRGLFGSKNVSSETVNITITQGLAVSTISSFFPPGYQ

Ho/Con_3a [%]	Binder
107	B1
107	B2
106	B3
102	B4
102	B5
103	B6
100	B7
100	B8

molecular target: T1, FcγRIIIa extracellular domain with …; assay: SPR (Biacore), one H chain altered; HeCon Ab GpH7-A5/GpH7-B3/GpL16-k0 = 100

He/Con_3a [%]	Binder
155	B9
105	B10
109	B11
103	B12
104	B13
101	B14
105	B15
105	B16
181	B17
107	B18
103	B19
113	B20
160	B21
111	B22
101	B23
104	B24
111	B25
117	B26
112	B27
101	B28
101	B29
115	B30
102	B31
121	B32
139	B33
118	B34

He/Con_3a [%]	Binder
103	B35
102	B36
106	B37
104	B38
121	B39
101	B40
103	B41
102	B42
114	B43
107	B44
106	B45
150	B46
104	B47
118	B48
101	B49
104	B50
104	B51
112	B52
113	B53
122	B54
107	B55
104	B56
101	B57
105	B58
110	B59
